According to the supplement of paper PMC9170038:

Tested on: MS2 coat protein
Assay: apparent KD of MS2 coat protein; designed switch direction (-1 OFF switch, 1 ON switch): -1; higher = weaker reporter binding
Method in brief: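 An oligonucleotide input, 200 uM small-molecule ligand, or no input was present during titration of SNAP-549-labelled MS2 coat protein, which was doubled from 0.7 or 1.5 nM to 3 µM. Designed RNA switches had been transcribed on Illumina chips by stalled E. coli RNA polymerase. Apparent KD per design is the median over clusters of curves fitted to normalised cluster fluorescence.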

[1] = input ligand: microRNA oligo, concentration not stated
[2] = Eterna round: R95, input ligand: microRNA oligo, concentration not stated
[3] = Eterna round: R95, input ligand: FMN 200 uM
[4] = Eterna round: R95, input ligand: none

Row | Sequence | apparent KD of MS2 coat protein (input ligand: FMN 200 uM) | apparent KD of MS2 coat protein (input ligand: none) | apparent KD of MS2 coat protein [1] | apparent KD of MS2 coat protein [2] | apparent KD of MS2 coat protein [3] | apparent KD of MS2 coat protein [4]
1 | GGCAUCGGAGGAUAUAUUUAUGGUGAUACCGGAAGCUUUCUACUUGAGGAUCACCCAAGUAGAAGGCCGAUGCC [jl-ex2.4.85 ViennaUCT mod] (Eterna round: R97, puzzle: Exclusion 2) | 39.5 nM | 13.7 nM |  |  |  | 
2 | UUUUUCUUUGUAGGAUAUCGUUUUUUUUUUUUUCGAGAAGGACAUGAGGAUCACCCAUGUUUCAAAAUUUUUUUUUUUUUUUUU [First try] (Eterna round: R96, puzzle: Exclusion NG 1) | 25.1 nM | 17.8 nM | 13.3 nM |  |  | 
3 | UUCGGCGGAGGAUAUACAGUUUUUUGUUGAAUCGGCGGAAAACAUGAGGAUCACCCAUGUAGAAGGUUGUUGAA [-19.8, -17.1 kcal, A 28%] (Eterna round: R97, puzzle: Exclusion 2) | 64.2 nM | 65.6 nM |  |  |  | 
4 | GCACGGAGUGUAGGAUAUCUGUGCGAUUAGCUCAGAGAAGGACAUGAGGAUCACCCAUGUGUGUUCCAAACACAAAAUCCGUGC [Eli exng1 - 065] (Eterna round: R96, puzzle: Exclusion NG 1) | 47.2 nM | 18 nM | 12.8 nM |  |  | 
5 | GGACCGAUUGUUAGGAUAUCGCACGGCUAGCCCAGCGAGAAGGGACAUGAGGAUCACCCAUGUGCGCUUAGCAC [Eternabot (L1) Solution 50] (Eterna round: R97, puzzle: Brourd's mod of Exclusion 4) | 156 nM | 155 nM |  |  |  | 
6 | UGUUAUAGAGGAUAUGCGUGAAAAUAGAUUCAUGGAAAUUUACAUGAGGAUCACCCAUGUAGAAGGCUGUGAUU [LRO-Excl2-15-mod 090 by JR] (Eterna round: R97, puzzle: Exclusion 2) | 14.8 nM | 14.7 nM |  |  |  | 
7 | CAUUAUGUUGAGGAUAUGCGCCGGAAAACUGACGCAGAAGGCGACACAUGAGGAUCACCCAUGUCAGUUUGCGA [salish99_ex6_r004_425] (Eterna round: R97, puzzle: Exclusion 6) | 70.1 nM | 28.3 nM |  |  |  | 
8 | AAGCACAGAGGAUAUACAAUCCUCAGUGGGUCUGGCGAGCCACAUGAGGAUCACCCAUGUAGAAGGCUGGGCUC [Xezaoron] (puzzle: Exclusion 2) |  |  |  | 11 nM |  | 
9 | AUAAUGUGAGGAUAUCAGUAAGAAUGCCUCGGCAUUCUUACUGAGAAGGCACAUGAGGAUCACCCAUGUGAUUA [E4/4-B2] (Eterna round: R97, puzzle: Exclusion 4) | 596 nM | 182 nM |  |  |  | 
10 | CAUUAGCGGGCAGGAUAUCCUAAUAAGCAGAAUGGAGAAGGGCCAAGGUCAACUUGAGGAUCACCCAAGUCAUAAAGUUGGCCC [Mutated MS2 EX1.29] (Eterna round: R96, puzzle: Exclusion NG 1) | 10.9 nM | 13.9 nM | 11.6 nM |  |  | 
11 | UAACCUCGCGUCAGGAUAUGUGAGGACUGUGACGCACAGAAGGGACAUGAGGAUCACCCAUGUGAAAGAAAUAA [Erlacema] (puzzle: Brourd's mod of Exclusion 4) |  |  |  | 22.2 nM |  | 
12 | UCUAGACAUGAGGAUCACCCAUGUGAGGAUAUGAUGCGAUCGUCGAAAGACGAUAGCAUCAGAAGGCACAAAUG [Fiskers Ex 1 - 12] (Eterna round: R96, puzzle: Exclusion 1) | 200 nM | 72.3 nM | 53.6 nM |  |  | 
13 | GAUUUAGAGCAGGAUAUCAUAGAAUUAUAUGAAUGAGAAGGGCUCACAUGAGGAUCACCCAUGUGGUCCUAGAU [JL Dibiri mod 22] (puzzle: Exclusion 6) |  |  |  | 22.8 nM |  | 
14 | AGUUACUACAAGCUUUGGGACAUGAGGAUCACCCAUGUUCGUCUUAUUGUAGUAGGUACGCUGACGUACCUACUACA [Mat - Sensor v3 - turn-off var 1 - JL Mod - D7] (puzzle: Sensor v3, turn-off variant 1) |  |  |  | 39.6 nM | 14.8 nM | 13.8 nM
15 | UACUGGACAGGAUAUGUACUUGAGCACUUGAGGAUCACCCAAGUCAUCAAGUACUCAGGCACAGAAGGGUUAAUUU [jl-ex5.4.64 ViennaUCT mod] (Eterna round: R97, puzzle: Exclusion 5) | 330 nM | 129 nM |  |  |  | 
16 | CGCAAAAGAGGAUAUACAUGAGGAUCACCCAUGUUUUCUCUUCAUAACGGAAACUCGUGUAGAAGGCUUGUGCG [EX3 C.18] (Eterna round: R97, puzzle: Exclusion 3) | 94.4 nM | 103 nM |  |  |  | 
17 | UCCGUACAUGAGGAUCACCCAUGUCAGGAUAUGGCUUUUAGCGUAGACGCGCAAGAGGCCAGAAGGGACUUUUG [Eternabot (L2) Solution 6] (Eterna round: R97, puzzle: Exclusion 1) | 30.5 nM | 27.7 nM |  |  |  | 
18 | AAGUUGCGAGGAUAUCGUAAGAUGGACAUGAGGAUCACCCAUGUGGUGCUUUUUUAUUGGCGAGAAGGCGCAUAAA [Zaiseren] (puzzle: Exclusion 5) |  |  |  | 166 nM | 134 nM | 164 nM
